According to patent US20040176567A1, “Modified calcitonin” (priority 2001, published 2004):
Marks after values point to notes of the source that are not given here. Bridge positions count the residues as written; N and C are the ends. Ends that are not written are not given here.

Key:
[1] = molecular target: calcitonin receptors on human ductal carcinoma T47D (HTB 133) cells (human) (UniProt P30988); assay: cell-based or functional assay; details: scale: orders of magnitude compared with the basal levels
[2] = Aggregation studies, turbidity at 340 nm; assay type: physicochemical; details: for Aggregation time (development of turbidity at 340 nm) / Aggregation time (half time, turbidity at 340 nm) / Aggregation time (turbidity at 340 nm): 37° C., pH 7.2
Protocol: Aggregation analysis was carried out as reported previously (Arvinte, T. et al., 1993, J. Biol. Chem, 268, 6415-6422) using PBS 5 mM sodium phosphate, 145 mM NaCl, pH 7.2. (sodium phosphate saline buffer) pH 7.2 and adding a minor amount of sodium azide to prevent bacterial growth (0.1%). Samples were always incubated at 37° C.
Aggregation was monitored by measuring turbidity at 340 nm. Different concentrations of peptide were tested.

[3] = Secondary structure (helical content) by circular dichroism; assay type: physicochemical; details: for Helical content by CD: neutral pH (7.0), 25° C., ellipticity at 222 nm; for Helical content compared with hCT: neutral and low pH (7.0 and 3.0)
Protocol: FIG. 2. Secondary structure of calcitonin peptides measured by circular dichroism. Experiments reflect the thermal denaturation profile of the peptides at pH 7.0 and 3.0 respectively. Ellipticity was measured at 222 nm and reflects the α-helical content of the peptides. Helical content based on CD spectra calculations (25° C.) according to Chen et al. (1974). Biochemistry 13, 3350-59.
Circular dichroism and Nuclear magnetic resonance were used to characterise the structural properties of human (hCT), salmon (sCT) and 6 chR (6 chR) calcitonin. Peptide concentration was estimated by amino acid analysis.

T47D (HTB 133) cells = assay: Calcitonin activity by cyclic AMP intracellular accumulation; assay type: cell-based, Human; details: for cAMP stimulation compared with basal levels: saturation concentration 1·10^−6 M, 15 min at 37° C., T47D cells
Excerpt: Activity tests may be carried out in suitable animal models using, for example chickens or mice. Activity can also be monitored in vitro, for example in cellular cultures. LLC-PKI kidney cells may be used, for which calcitonin has been reported to increase alkaline phosphatase activity and cAMP levels Wohlwend A et al (1985) Biochem Biophys Commen 131 537-542, Miyamoto K. I. et al (1998) Jpn. J. Pharmacol 76.193-198. […] We used a combination of two previously described systems with some modifications (Zimmerman, U. et al, 1997, J. Endocrinol. 155, 423-431; Miyamoto, K. I. et al, 1998, Jpn. J. Pharmacol 76, 193-198). Human ductal carcinoma T47D (HTB 133) cells were used for the assays.
T47D (HTB 133) cells were purchased from the American Type Culture Collection (ATCC) and grown in RPMI-1640 modified medium (ATCC) containing 2 mM L-glutamine, 10 mM HEPES, 1 mM sodium pyruvate, 4.5 g/L glucose and 1.5 g/L sodium bicarbonate. This medium was supplemented with 10% heat-inactivated fetal calf serum, 25 μg/mL gentamycin and 100 nM dexamethasone, this last to enhance the expression of calcitonin receptors. Cells were grown in a humidified atmosphere of 95% air-5% CO2 at 37° C.
Cyclic AMP (cAMP) accumulation was used to measure the degree of stimulation upon incubation in the presence of different calcitonin peptides. Typically cells were grown in multi-well plates until confluency was reached and then washed with pre-heated DPBS-glucose (Gibco, Invitrogen) to remove any traces of fetal serum. Sample solutions were prepared by dissolving different amounts of hCT, sCT and 6 chR (6 CT) in DPBS-glucose supplemented with 0.1% BSA and 1 mM IBMX (3-isobuthyl-1-methylxanthine). After being washed, cells were incubated for 15 min at 37° C. in the presence of the peptide solutions. Medium was then removed by aspiration and cells were rapidly frozen on dry-ice and then kept at −80° C. until cAMP measurements were carried out.
Cyclic AMP content of different samples was measured using a commercial AMP enzyme immunoassay (EIA) system (Biotrak, Amersham-Biotech) according to manufacturer's specifications. Different dilutions of cellular extracts were measured in order to cover the whole range of stimulation caused by calcitonin incubation. Saturation concentrations (1·10^−6 M) of the three peptides (hCT, sCT & 6chR) were used to establish the maximum capacity of stimulation for each one of the different sequences. […] All three peptides show clear stimulation effects confirming the calcitonin-like activity of the engineered 6 chR (6 CT) peptide.

UniProt P30988, sequence (P30988 25-474, stated change not applied): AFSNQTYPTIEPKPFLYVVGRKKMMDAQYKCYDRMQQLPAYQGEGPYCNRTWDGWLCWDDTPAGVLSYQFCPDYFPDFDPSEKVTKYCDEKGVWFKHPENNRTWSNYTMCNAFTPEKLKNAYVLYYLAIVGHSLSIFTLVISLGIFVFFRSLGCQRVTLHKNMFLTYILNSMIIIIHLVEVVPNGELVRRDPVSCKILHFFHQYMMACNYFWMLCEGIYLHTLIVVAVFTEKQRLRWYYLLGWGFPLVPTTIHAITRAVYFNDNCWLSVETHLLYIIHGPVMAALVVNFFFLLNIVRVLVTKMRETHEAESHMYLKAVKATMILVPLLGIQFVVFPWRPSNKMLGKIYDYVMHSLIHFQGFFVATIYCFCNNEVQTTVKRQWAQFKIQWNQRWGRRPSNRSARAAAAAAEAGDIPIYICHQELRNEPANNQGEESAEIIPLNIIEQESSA

With “salmon calcitonin (from UniProt P01263 83-114) (peptide)” the intracellular cAMP accumulation in T47D cells, peptide at saturation concentration 1·10^-6 M, 15 min, cAMP EIA [1] was 3.

With “CGNLSTCMLGTYTQDFNKFHTFPQTAIGVGAP [Human, reference compound]” the “Aggregation time (development of turbidity at 340 nm)” value ([2]; 1 mg/mL filtered 0.5 μm) was “˜45 days”, the “Aggregation time (half time, turbidity at 340 nm)” value ([2]; 10 mM (~35 mg/mL) unfiltered) was 4 h and the “Aggregation time (development of turbidity at 340 nm)” value ([2]; 10 mg/mL filtered 0.5 μm) was “˜26 days”. The “Aggregation time (half time, turbidity at 340 nm)” value ([2]; 10 mg/mL unfiltered) was “˜30 hours”, the “Helical content by CD” value [3] was 11.3% and the “cAMP stimulation compared with basal levels” value (T47D (HTB 133) cells) was “close to three orders of magnitude”.

In the case of “CSNLSTCVLGKLSQELHKLQTYPRTNTGSGTP [Salmon-1]”, the “Helical content compared with hCT” value [3] is reported as “higher helical content than hCT”, the “Helical content by CD” value [3] is reported as 22.5% and the “cAMP stimulation compared with basal levels” value (T47D (HTB 133) cells) is reported as “close to three orders of magnitude”.

With “CGNLSTCMLGKLTQELRKLHTFPQTAIGVGAP (disulfide 1-7; ends not checked) [6chR]” the “Time required to aggregate relative to the human peptide” value [2] was “at least two orders of magnitude larger”, the “Aggregation time (turbidity at 340 nm)” value ([2]; 1 mg/mL filtered 0.5 μm, no aggregation detected at the end of the experiment) was “(>10 months)^c” and the “Aggregation time (turbidity at 340 nm)” value ([2]; 10 mM (~35 mg/mL) unfiltered) was 18 days. For the same substance, the “Aggregation time (turbidity at 340 nm)” value ([2]; 10 mg/mL filtered 0.5 μm, no aggregation detected at the end of the experiment) was “(>10 months)^c”, the “Aggregation time (turbidity at 340 nm)” value ([2]; 10 mg/mL unfiltered, no aggregation detected at the end of the experiment) was “(>10 months)^c” and the “Aggregation behaviour compared with human calcitonin (FIG. 1)” value ([2]; 35 mg/mL, solutions not filtered) was “aggregates much more slowly than the human form”. For the same substance, the “Time without detectable aggregation” value ([2]; concentrations of 10 mg/mL or below, unfiltered and filtered solutions) was greater than 10 months, the “Helical content compared with hCT” value [3] was “enhanced helical content” and the “Helical content by CD” value [3] was 21.1%. The “cAMP stimulation effect compared with hCT and sCT” value (T47D (HTB 133) cells; 1·10^−6 M, T47D cells (FIG. 3)) was “clearly higher than that of the hCT and even the sCT peptide” and the “cAMP stimulation compared with basal levels” value (T47D (HTB 133) cells) was “close to three orders of magnitude”.
